Data on five molecules can be found in US20090226442A1 (Biogen, published 2009).

Test [1] has as its target T1, human RON (recepteur d'origine nantais, MST1R), full length, expressed on cells (human, UniProt Q04912 25-1400).
T1 construct: On SW480 tumor cells it is endogenous; also called hRON; SW480-RON cells
The experiment in a line: flow cytometry on SW480 tumor cells, 4P fit (apparent affinity). The method, then:
The binding of RON antibodies to RON expressing tumor cells was analyzed by flow cytometry, and an apparent affinity was calculated. Confluent SW480 cells were detached with 5 mM EDTA, washed 1× with FACS buffer (1% FCS, 0.05% sodium azide, 1×PBS) and resuspended at 0.5-1.0×10⁷/ml. The cells were added to a 96-well V bottom polypropylene plate at 100 μl/well. Antibody dilutions were made up in FACS buffer at 2× final concentration and added to the plate at 100 μl/well. The plate was incubated for 1 hour at 4° C., followed by washing 3× with FACS buffer. The cell pellets were then resuspended in 150 μl of PE labeled goat anti-murine IgG H & L secondary antibody, diluted 1/200, and incubated for 1 hour at 4° C. The cells were then washed 1× with FACS buffer and fixed with 150 μl 3% formaldehyde at room temperature for 10 minutes. The cell pellets were resuspended in 150 μl FACS buffer and analyzed by FACS. The EC50 of binding was calculated from the binding curves using a standard 4P fit equation.

In test [2] the target is T2, PSI domain of RON (G502-P544) thioredoxin fusion protein (human, UniProt Q04912 526-568).
T2 construct: Expressed in E. coli; also called PSI domain alone; not shown: thioredoxin (printed 'thiroedexin') fusion partner; purified on
T2 chain: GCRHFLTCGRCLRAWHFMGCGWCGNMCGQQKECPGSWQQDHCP
Briefly: ELISA on plate-coated PSI domain thioredoxin fusion. The method, then:
The ability of the antibodies to bind to soluble RON was measured using a standard ELISA protocol. Briefly, soluble RON protein (R&D Systems, catalog 1947) was coated on Nunc Maxisorb ELISA plates at a concentration of […] in PBS overnight at 4° C. Plates were washed 4 times with an automatic washer in PBS, 0.05% Tween 20. Plates were then blocked in PBS+1% BSA for 1-2 hours at room temperature (RT). After washing, serial dilutions of the antibodies in blocking buffer were added to the plate (100 ul/well) and incubated for 1-2 hours at RT. The plate was washed again 4× with automatic washer (PBS, 0.05% tween 20). Next, the plate was incubated with HRP-labelled donkey anti-mouse polyclonal antibody (Jackson Labs 715-035-130) at a dilution of 1:4000 in blocking buffer (100 ul/well) for 0.5-1 hour RT. The plate was washed again 4× with automatic washer (PBS, 0.05% Tween 20). After the final wash step, the plate was developed with TMB solution (25 ml 100 mM sodium acetate, pH to 6 with citric acid, 4 ul 30% H202, 250 ul 42 mM TMB in DMSO) for 5 minutes. The reaction was stopped with 100 ul H₂SO₄. Plates were read at 450 nm wavelength on Molecular Devices Spectramax M5 and Softmax pro V5 software was used to analyze the data.
The PSI domain of RON (G502-P544) was expressed in E. coli as a thiroedexin-fusion protein. The protein was purified on NiNTA agarose (qiagen) followed by preparative size exclusion chromatography (SEC). This protein was used to coat ELISA plates and analyze antibodies for binding using the same protocol described above for binding of antibodies to soluble RON in Example 10.

B1: 1P3B2 murine monoclonal anti-RON antibody (antibody, V domains shown)
VH: EVQLQQSGPELEKPGASVKISCKASGYSFTGYNMNWVKQSNGESLEWIGDIDPYYGGTRYNQKFKGKATLTVDKSSSTAYMQLKSLTSEDSAVYYCAREGRGFAYWGQGTLVTVSA
VL: DIQMTQSPASLSASVGETVTITCRASENIYSYLAWYQKKQGKSPQLLVYNAKTSVEGVPSRFSGSGSGIQFSLKINSLQPEDFGSYYCHCQHHYGTLPTFGGGTKLEIK
notes: Whole murine hybridoma antibody; kappa light chain; also called 1P3B2.2; PTA-8813
As to B1, the EC50 in test [1] turned out to be 0.04 nM. Also, the binding result in test [2] is “no binding”.

B2: 1P4A3 murine monoclonal anti-RON antibody (antibody, V domains shown)
VH: EVQLQQSGPELEKPGASVMISCKASGYSFTGYNMNWVKQSTGKSLEWIGDIDPYYDGTRYNQKFKGKATLTADKSSSTAYMQLKSLTSEDSAVYYCTREGRGFAYWGQGTLVTVSA
VL: DIQMTQSPASLSASVGETVTITCRASENIYSYLAWYQQKQGKSPQLLVYNAKTLAGGVPSRFSGSGSGTQFSLKINSLQPEDFGSYYCQHYYGTPLTFGAGTKLELK
notes: Whole murine hybridoma antibody; kappa light chain; also called 1P4A3.3; 1.P4A3.3
Consider B2, for which the EC50 in test [1] amounted to 0.07 nM. Moreover, in test [2], the binding result is on record as “no binding”.

B3: 1P4A12 murine monoclonal anti-RON antibody (antibody, V domains shown)
VH: EVQLQQSGPELVKPGASMKISCKASGYSFTGYTMNWVKQSHGKKLEWIGLINPYNGGTIYNQKFKGKATLTVDKSSSTAYMELLSLTSEDSAVYYCARWLRRGGYAMDYWGQGASVTVSS
VL: DILLTQSPAILSVSPGERVSFSCRASQSIGTSIHWYQQRTNGSPRLLIKFASESISGIPSRFSGSGSGTDFTLSINSVESEDIADYYCQQSDSWPLTFGAGTKLEVK
notes: Whole murine hybridoma antibody; kappa light chain; also called 1P4A12.2; 1.P4A12.2
Turning to B3, the concentration for a half-maximal effect (EC50) in test [1] was found to be 0.07 nM. Also, the binding result in test [2] was “no binding”.

B4: 1P5B10 murine monoclonal anti-RON antibody (antibody, V domains shown)
VH: EVQLQQSGPELVKPGASMKISCRAAGFSFTGYTMNWVKQSHGKSLEWIGLINLNNGGTSHNQKFKGKATLTVDKSSSTAYMELLSLTSEDSAVYYCARWLRRGGYAMDYWGQGISVTVSS
VL: DILLTQSPAILSVSPGERVSFSCRASQNIGTSIHWYQQRTNGSPRLLIKYASESISGIPSRFSGSGSGTDFTLSINSVESEDIADYYCQQSDSWPLTFGAGTKLELK
notes: Whole murine hybridoma antibody; kappa light chain; also called 1P5B10.3; 1.P5B10.3.10
With B4, the half-maximal effective concentration (EC50) in test [1] worked out at 0.34 nM. Also, in test [2], the binding result was “no binding”.

B5: 1P2E7 murine monoclonal anti-RON antibody (antibody, V domains shown)
VH: DVQLQESGPGLVKPSQSLSLTCTVTGDSITSDYAWNWIRQFPGNKLEWMGYISYSGSTSYNPSLKSRFSITRDTSKNQFFLQLNSVTTEDSATYYCARGGFYYRYAGPGFAYWGQGTLVTVSA
VL: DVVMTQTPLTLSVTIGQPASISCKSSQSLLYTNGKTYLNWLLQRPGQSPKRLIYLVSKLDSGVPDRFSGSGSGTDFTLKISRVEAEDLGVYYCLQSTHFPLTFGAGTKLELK
notes: Whole murine hybridoma antibody; kappa light chain; also called 1P2E7.3; 1.P2E7.3
Consider B5, for which, in test [1], the concentration giving a half-maximal response (EC50) is 0.09 nM. Moreover, the binding result in test [2] is recorded as “no binding”.
